Measurements taken from patent US20240010680A1, “PEPTIDE DISINFECTANT FOR PREVENTING CORONAVIRUSES” (Xiamen University, priority 2021, published 2024).

Target: hACE2-His purified protein (human (printed as hACE2)) (UniProt Q9BYF1)
Sequence (Q9BYF1 18-740 limits assumed): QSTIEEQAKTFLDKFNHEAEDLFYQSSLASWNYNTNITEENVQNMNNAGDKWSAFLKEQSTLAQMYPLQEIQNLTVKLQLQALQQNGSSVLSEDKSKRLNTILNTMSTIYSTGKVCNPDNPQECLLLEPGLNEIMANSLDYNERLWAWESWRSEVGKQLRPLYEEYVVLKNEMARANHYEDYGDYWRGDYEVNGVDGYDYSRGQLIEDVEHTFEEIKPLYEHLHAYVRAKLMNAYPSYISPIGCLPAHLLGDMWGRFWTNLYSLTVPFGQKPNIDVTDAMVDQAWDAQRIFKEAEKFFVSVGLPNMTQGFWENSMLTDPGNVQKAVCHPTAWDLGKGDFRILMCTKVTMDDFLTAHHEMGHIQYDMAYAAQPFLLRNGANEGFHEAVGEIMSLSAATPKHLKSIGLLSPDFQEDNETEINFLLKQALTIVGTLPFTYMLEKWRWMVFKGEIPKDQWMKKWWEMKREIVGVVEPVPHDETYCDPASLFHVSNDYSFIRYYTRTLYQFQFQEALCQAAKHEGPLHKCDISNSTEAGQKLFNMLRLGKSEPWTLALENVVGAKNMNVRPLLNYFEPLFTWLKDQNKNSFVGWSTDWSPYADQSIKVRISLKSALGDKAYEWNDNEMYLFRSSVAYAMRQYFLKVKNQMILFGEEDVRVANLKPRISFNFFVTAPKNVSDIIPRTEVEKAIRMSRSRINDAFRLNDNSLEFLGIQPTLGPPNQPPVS

S1-HA purified protein (ligand)
Relative brightness value: 100%
